Laboratory results taken from patent US20260022175A1 (Chugai, published 2026).

How the values were obtained:
[1] = molecular target: T1, hCTLA4-His-BAP (human CTLA4 extracellular region with C-terminal His-tag and BAP-tag) (human, biotin on the BAP-tag); assay: SPR 37C, hCTLA4 1000 nM, ATP 10 µM; ATP 10 µM; binding amount at 1000 nM hCTLA4
T1 construct: also called hCTLA4-His-Biotin

[2] = molecular target: T1, hCTLA4-His-BAP (human CTLA4 …); assay: SPR 37C, ATP 10 µM; ATP 10 µM
[3] = molecular target: T1, hCTLA4-His-BAP (human CTLA4 …); assay: SPR 37C, hCTLA4 1000 nM, no ATP; no ATP; binding amount at 1000 nM hCTLA4
[4] = molecular target: T1, hCTLA4-His-BAP (human CTLA4 …); assay: SPR 37C, hCTLA4 1000 nM, ATP 100 µM; ATP 100 µM; binding amount at 1000 nM hCTLA4
[5] = molecular target: T1, hCTLA4-His-BAP (human CTLA4 …); assay: SPR 37C, ATP 100 µM; ATP 100 µM
[6] = molecular target: T1, hCTLA4-His-BAP (human CTLA4 …); assay: SPR 37C, hCTLA4 1000 nM, ATP 1 µM; ATP 1 µM; binding amount at 1000 nM hCTLA4
[7] = molecular target: T2, hFcγRIIaH on hFcγRIIaH-expressing Jurkat cells (human, UniProt P12318 34-317); assay: cell-based or functional assay
T2 sequence (looked up): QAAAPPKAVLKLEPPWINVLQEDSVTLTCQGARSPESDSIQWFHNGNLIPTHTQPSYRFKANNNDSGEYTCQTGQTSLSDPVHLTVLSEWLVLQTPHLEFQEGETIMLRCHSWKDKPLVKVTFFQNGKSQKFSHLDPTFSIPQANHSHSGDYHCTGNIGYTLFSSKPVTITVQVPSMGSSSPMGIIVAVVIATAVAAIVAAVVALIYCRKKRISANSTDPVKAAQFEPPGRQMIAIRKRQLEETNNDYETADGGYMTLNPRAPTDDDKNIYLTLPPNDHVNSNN

[8] = molecular target: T3, human FcγRIIb extracellular domain (human, UniProt P31994 43-217); assay: SPR Biacore 8K+, antibody captured, FcγR as analyte, steady state affinity model
T3 construct: extracellular domain; also called hFcγR IIb
T3 sequence (looked up): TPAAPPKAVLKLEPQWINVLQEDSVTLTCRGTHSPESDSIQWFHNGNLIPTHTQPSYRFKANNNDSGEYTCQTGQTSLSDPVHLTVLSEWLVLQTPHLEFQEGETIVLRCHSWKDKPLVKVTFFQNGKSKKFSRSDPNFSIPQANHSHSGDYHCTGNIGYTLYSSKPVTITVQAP

[9] = molecular target: T4, human C1q protein (Calbiochem) (human, UniProt P02745 23-245; P02746 28-253; P02747 29-245); assay: ELISA: antibody coated on the plate at the varied concentration, hC1q 3 µg/mL added, detected with HRP-conjugated anti-hC1q antibody, O.D (450-690nm)
T4 construct: bought; also called hC1q
T4 sequence (P02745 23-245 limits assumed, chain 1 of 3): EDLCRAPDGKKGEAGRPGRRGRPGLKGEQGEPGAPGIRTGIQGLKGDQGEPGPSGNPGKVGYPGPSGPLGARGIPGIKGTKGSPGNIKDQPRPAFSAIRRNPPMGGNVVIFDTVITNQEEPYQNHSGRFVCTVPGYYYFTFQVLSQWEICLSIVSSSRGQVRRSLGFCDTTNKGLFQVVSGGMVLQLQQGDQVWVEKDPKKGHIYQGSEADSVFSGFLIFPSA
T4 sequence (P02746 28-253 limits assumed, chain 2 of 3): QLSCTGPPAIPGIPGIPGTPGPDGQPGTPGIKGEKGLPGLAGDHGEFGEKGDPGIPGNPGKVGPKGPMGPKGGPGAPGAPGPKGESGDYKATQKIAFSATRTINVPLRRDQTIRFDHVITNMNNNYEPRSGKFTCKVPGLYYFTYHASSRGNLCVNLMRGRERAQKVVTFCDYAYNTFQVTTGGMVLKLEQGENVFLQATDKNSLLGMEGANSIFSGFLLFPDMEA
T4 sequence (P02747 29-245 limits assumed, chain 3 of 3): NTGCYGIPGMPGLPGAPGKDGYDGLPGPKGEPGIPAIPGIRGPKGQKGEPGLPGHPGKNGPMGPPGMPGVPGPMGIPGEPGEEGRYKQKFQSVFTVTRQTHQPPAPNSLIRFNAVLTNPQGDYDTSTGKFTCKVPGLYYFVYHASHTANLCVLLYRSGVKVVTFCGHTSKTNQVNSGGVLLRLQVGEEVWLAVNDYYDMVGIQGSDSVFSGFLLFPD

[10] = molecular target: hFcγRIIIaV on hFcγRIIIaV-expressing Jurkat cells (human, UniProt P08637 17-254); assay: cell-based or functional assay
Sequence of hFcγRIIIaV on hFcγRIIIaV-expressing Jurkat cells (P08637 17-254, form in doubt): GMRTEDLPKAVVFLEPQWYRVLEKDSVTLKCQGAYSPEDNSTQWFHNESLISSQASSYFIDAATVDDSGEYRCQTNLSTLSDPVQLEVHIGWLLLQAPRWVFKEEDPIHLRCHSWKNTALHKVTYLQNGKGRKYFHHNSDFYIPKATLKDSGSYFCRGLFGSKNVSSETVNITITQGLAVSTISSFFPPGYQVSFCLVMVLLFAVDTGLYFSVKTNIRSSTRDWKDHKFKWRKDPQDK

[11] = molecular target: T3, human FcγRIIb extracellular domain; assay: SPR Biacore 8K+; KD of G1d divided by KD of this antibody;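 also: antibodies captured on an anti-Fab-kappa streptavidin chip, soluble FcγR ectodomains flowed over, KD by steady-state fit for FcγRIIb and Langmuir kinetic model for the other receptors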
[12] = molecular target: T5, human FcγRIa extracellular domain (human, UniProt P12314 16-292); assay: as above
T5 construct: extracellular domain; also called hFcγR Ia; hFcγRIa
T5 sequence (P12314 16-292): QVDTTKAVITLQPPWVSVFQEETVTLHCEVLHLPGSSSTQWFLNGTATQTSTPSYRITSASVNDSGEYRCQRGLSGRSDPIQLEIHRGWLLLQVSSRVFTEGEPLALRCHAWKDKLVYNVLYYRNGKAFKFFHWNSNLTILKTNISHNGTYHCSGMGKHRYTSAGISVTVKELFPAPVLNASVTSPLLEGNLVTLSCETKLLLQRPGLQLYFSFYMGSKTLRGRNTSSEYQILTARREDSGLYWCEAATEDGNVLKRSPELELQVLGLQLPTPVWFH

[13] = molecular target: T6, human FcγRIIa R extracellular domain (human, UniProt P12318 34-217); assay: as above
T6 construct: extracellular domain; also called hFcγR IIa R
T6 sequence (looked up): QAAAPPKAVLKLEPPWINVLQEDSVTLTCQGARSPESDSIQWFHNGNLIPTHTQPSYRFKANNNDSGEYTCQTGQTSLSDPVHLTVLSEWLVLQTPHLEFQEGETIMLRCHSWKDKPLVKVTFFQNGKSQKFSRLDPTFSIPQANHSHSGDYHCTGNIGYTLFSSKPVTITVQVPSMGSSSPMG

[14] = molecular target: T7, human FcγRIIIa F extracellular domain (human, UniProt P08637 17-208); assay: as above
T7 construct: extracellular domain; also called hFcγR IIIa F
T7 sequence (P08637 17-208): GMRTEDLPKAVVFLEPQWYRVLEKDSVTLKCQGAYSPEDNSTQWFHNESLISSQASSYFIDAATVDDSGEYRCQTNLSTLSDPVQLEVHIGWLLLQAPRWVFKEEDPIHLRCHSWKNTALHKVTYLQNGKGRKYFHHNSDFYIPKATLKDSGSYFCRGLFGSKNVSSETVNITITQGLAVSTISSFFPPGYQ

[15] = molecular target: T8, human FcγRIIIa V extracellular domain (human, UniProt P08637 17-208); assay: as above
T8 construct: extracellular domain; also called hFcγR IIIa V
T8 sequence (P08637 17-208 F176V limits assumed): as the sequence (P08637 17-208) above, with F160V counted along it

[16] = molecular target: T9, human FcγRIIa H extracellular domain (human, UniProt P12318 34-217); assay: as above
T9 construct: extracellular domain; also called hFcγR IIa H
T9 sequence (looked up): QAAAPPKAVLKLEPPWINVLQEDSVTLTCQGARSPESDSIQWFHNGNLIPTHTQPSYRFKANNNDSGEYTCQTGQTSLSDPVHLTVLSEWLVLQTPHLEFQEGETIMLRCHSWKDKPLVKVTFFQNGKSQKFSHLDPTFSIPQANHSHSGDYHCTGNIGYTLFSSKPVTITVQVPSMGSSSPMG

[17] = molecular target: T5, human FcγRIa extracellular domain; assay: SPR Biacore 8K+, antibody captured, FcγR as analyte, 1:1 Langmuir model;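 also: antibodies captured on a streptavidin chip through a biotinylated anti-human Fab kappa reagent, with FcγR extracellular domains injected in pH 7.4 phosphate buffer at 25 °C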
[18] = molecular target: T6, human FcγRIIa R extracellular domain; assay: as above
[19] = molecular target: T7, human FcγRIIIa F extracellular domain; assay: as above
[20] = molecular target: T8, human FcγRIIIa V extracellular domain; assay: as above
[21] = molecular target: T9, human FcγRIIa H extracellular domain; assay: as above
[22] = molecular target: T6, human FcγRIIa R extracellular domain; assay: SPR Biacore 8K+; KD for FcγRIIb divided by KD for this FcγR;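 also: antibodies captured on an anti-human Fab kappa SA chip with soluble human FcγR ectodomains flowed over, FcγRIIb KD from steady-state fit, other FcγR KD from Langmuir model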
[23] = molecular target: T7, human FcγRIIIa F extracellular domain; assay: as above
[24] = molecular target: T8, human FcγRIIIa V extracellular domain; assay: as above
[25] = molecular target: T9, human FcγRIIa H extracellular domain; assay: as above

T1 sequence (chain, as listed by the source limits assumed): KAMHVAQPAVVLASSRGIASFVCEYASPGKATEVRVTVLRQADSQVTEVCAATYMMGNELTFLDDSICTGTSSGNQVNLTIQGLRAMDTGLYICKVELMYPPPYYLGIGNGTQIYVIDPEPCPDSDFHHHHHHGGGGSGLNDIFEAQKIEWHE

B1: 04H1077-G1m/04L1041-lam1 (antibody, human IgG1, lambda, V domains shown)
VH: EVQLVESGGDLVKPGGGLRLSCAASGFTFSSRTMNWVRQAPGKGLEWVSSISTRSGYIYYAESVKGRFTISRDNAKNSLYLQMNSLRAEDTAVYYCARYGKREDMLWVFDYWGQGTLVTVSS
VL: QSALTQPPSASGSPGQTVTISCDGPSTDVGDYNYVHWYQQHPGKAPKLMIYFTSKKPSGVPDRFSGSKSGNTASLTVSGLQAEDEADYFCSTYAAPLGPMFGGGTKLTVLG
- Binding to Human CTLA4 [1]: 0.094 per unit amount of antibody
- Kd [2]: 730 nM
- Binding to Human CTLA4 [3]: 0.006 per unit amount of antibody
- Binding to Human CTLA4 [4]: 0.172 per unit amount of antibody
- Kd [5]: 140 nM
- Binding to Human CTLA4 [6]: 0.023 per unit amount of antibody

B2: 04H1077-G1m/04L1067-lam1 (antibody, human IgG1, lambda, V domains shown)
VH: EVQLVESGGDLVKPGGGLRLSCAASGFTFSSRTMNWVRQAPGKGLEWVSSISTRSGYIYYAESVKGRFTISRDNAKNSLYLQMNSLRAEDTAVYYCARYGKREDMLWVFDYWGQGTLVTVSS
VL: QSALTQPPSASGSPGQTVTISCDGPSTGVGDYNYVHWYQQHPGKAPKLMIYFTSKKPSGVPDRFSGSKSGNTASLTVSGLQAEDEADYFCSTYAAPLGPMFGGGTKLTVLG
- Binding to Human CTLA4 [1]: 0.131 per unit amount of antibody
- Kd [2]: 400 nM
- Binding to Human CTLA4 [3]: 0.012 per unit amount of antibody
- Binding to Human CTLA4 [4]: 0.192 per unit amount of antibody
- Kd [5]: 76 nM
- Binding to Human CTLA4 [6]: 0.041 per unit amount of antibody

B3: 04H1077-G1m/04L1086-lam1 (antibody, human IgG1, lambda, V domains shown)
VH: EVQLVESGGDLVKPGGGLRLSCAASGFTFSSRTMNWVRQAPGKGLEWVSSISTRSGYIYYAESVKGRFTISRDNAKNSLYLQMNSLRAEDTAVYYCARYGKREDMLWVFDYWGQGTLVTVSS
VL: QSALTQPPSASGSPGQTVTISCDGPSTGVGDYNYVHWYQQHPGKAPKLMIYFTSKKPSGVPDRFSGSKSGNTASLTVSGLQAEDEADYFCQTYAAPLGPMFGGGTKLTVLG
- Binding to Human CTLA4 [1]: 0.106 per unit amount of antibody
- Kd [2]: 690 nM
- Binding to Human CTLA4 [3]: 0.01 per unit amount of antibody
- Binding to Human CTLA4 [4]: 0.181 per unit amount of antibody
- Kd [5]: 110 nM
- Binding to Human CTLA4 [6]: 0.031 per unit amount of antibody

B4: H240-Kn462/L73-k0//H240-Hl441/L73-k0 (antibody, human IgG1, kappa)
heavy 1: QDQLVQSGAEVKKPGASVKVSCKASGFNIKDTYIQWVRQAPGQGLEWMGRIDPLRKQTKYREKFEGRVTITADTSTNTAYMELSSLRSEDTAVYYCVRSGREFDYWGQGTLVTVSSASTKGPSVFPLAPSSKSTSGGTAALGCLVKDYFPEPVTVSWNSGALTSGVHTFPAVLQSSGLYSLSSVVTVPSSSLGTQTYICNVNHKPSNTKVDKKVEPKSCDKTHTCPPCPAPEFQWGPMVFLFPPKPKDVLMISRTPEVTCVVVDVSDEEPEVKFNWYVDGVEVHNAKTKPREEQYNATYRVVSVLPVLHQDWLNGKEYKCKVSNDALPAPIEKTISKAKGQPREPQVCTLPPSRDELTKNQVSLWCLVKGFYPSDIAVEWESNGQPENNYKTTPPVLDSDGSFFLYSKLTVDKSRWQQGNVFSCSVMHEALHNHYTQKSLSLSP
heavy 2: QDQLVQSGAEVKKPGASVKVSCKASGFNIKDTYIQWVRQAPGQGLEWMGRIDPLRKQTKYREKFEGRVTITADTSTNTAYMELSSLRSEDTAVYYCVRSGREFDYWGQGTLVTVSSASTKGPSVFPLAPSSKSTSGGTAALGCLVKDYFPEPVTVSWNSGALTSGVHTFPAVLQSSGLYSLSSVVTVPSSSLGTQTYICNVNHKPSNTKVDKKVEPKSCDKTHTCPPCPAPELLAGPSVFLFPPKPKDVLMISRTPEVTCVVVDVSHEEPEVKFNWYVDGVEVHNAKTKPREEQYNATYRVVSVLPVLHQDWLNGKEYKCKVSNDALPAPIEETISKAKGQPREPQVYTLPPSRCELTKNQVSLSCAVKGFYPSDIAVEWESNGQPENNYKTTPPVLDSDGSFFLVSKLTVDKSRWQQGNVFSCSVMHEALHNHYTQKSLSLSP
light: DIQMTQSPSSLSASVGDRVTITCRASQDIHKYIAWYQQKPGQAPRLLIQYTSTLQPGVPSRFSGSGSGTDYTFTISSLQPEDIATYYCLQYEQLRTFGGGTKVEIKRTVAAPSVFIFPPSDEQLKSGTASVVCLLNNFYPREAKVQWKVDNALQSGNSQESVTEQDSKDSTYSLSSTLTLSKADYEKHKVYACEVTHQGLSSPVTKSFNRGEC
notes: also called EGL-ART5; ART5
- EC50 value (hFcγRIIaH ADCP Reporter Bioassay, Hepa1-6/hEREG target cells) [7]: 0.0245 µg/mL
- Kd [8]: 7960 nM
- binding result [9]: binds
- EC50 value (hFcγRIIIaV ADCC Reporter Bioassay, Hepa1-6/hEREG target cells) [10]: 0.00167 µg/mL
- Relative value to KD between G1d and hFcgRs [11]: 1.3
- Relative value to KD between G1d and hFcgRs [12]: 0.5
- Relative value to KD between G1d and hFcgRs [13]: 10.4
- Relative value to KD between G1d and hFcgRs [14]: 148
- Relative value to KD between G1d and hFcgRs [15]: 92.9
- Relative value to KD between G1d and hFcgRs [16]: 33.9
- Kd [17]: 0.169 nM
- Kd [18]: 160 nM
- Kd [19]: 20 nM
- Kd [20]: 3.86 nM
- Kd [21]: 33.2 nM
- A/I ratio (KD for FcγRIIb divided by KD for each FcγR) [22]: 49.9
- A/I ratio (KD for FcγRIIb divided by KD for each FcγR) [23]: 399
- A/I ratio (KD for FcγRIIb divided by KD for each FcγR) [24]: 2060
- A/I ratio (KD for FcγRIIb divided by KD for each FcγR) [25]: 240
